In US5840867:

B1: 15-mer GG(dU)TGGTGTGG(dU)TGG (ssDNA)
DNA: GGTTGGTGTGGTTGG
modifications: dU at positions 3 and 12 [n positions 3,12 = modified dU]
B2: 15-mer with 3' thioates GGTTGGTGTGGTT*G*G (ssDNA)
DNA: GGTTGGTGTGGTTGG
modifications: PS linkages between 13-14 and 14-15
B3: 17-mer with 3' MEA linkages GGTTGGTGTGGTTGG#G#T (ssDNA)
DNA: GGTTGGTGTGGTTGGGT
modifications: P(O)NH(CH2CH2OCH3) (MEA) linkages between 15-16 and 16-17
B4: 15-mer all thioate (ssDNA)
DNA: GGTTGGTGTGGTTGG
modifications: PS at all linkages
B5: 15-mer GGTTGGTGTGGTU'GG (ssDNA)
DNA: GGTTGGTGTGGTTGG
modifications: 5-(1-pentynyl)uracil at position 13 [13 = 5-(1-pentynyl)uracil (dU analog written as T)]
B6: 15-mer GGTTGG(dU)G(dU)GGTTGG (ssDNA)
DNA: GGTTGGTGTGGTTGG
modifications: dU at positions 7 and 9 [n positions 7,9 = modified dU]

Molecular target: thrombin (UniProt P00734;P00734 P00734:328-363,P00734:364-622)
Experiment: inhibition; fibrinogen clotting assay

Q: For B1, which Ki is on record?
A: The Ki was 80 nM.

Q: Which Ki does the source give for B2 here?
A: The Ki was 40 nM.

Q: How did the Ki turn out when B3 was run?
A: Its Ki is 35 nM.

Q: Which Ki does the source give for B4 here?
A: The Ki was 280 nM.

Q: How did the Ki turn out when B5 was run?
A: Its Ki is 20 nM.

Q: How did the Ki turn out when B6 was run?
A: Its Ki is 15 nM.
